pyrene = pyrene label
Assays:
Assay type in all cases: in vivo
Aβ plaques [1] = biological target: T1, Aβ plaques (Homo sapiens, UniProt P05067); experiment: Fluorescent labeling of Aβ plaques in brain after intranasal administration to hAPP transgenic mice (Example 2); conditions: for fluorescent labeling of Aβ plaques (FIG. 1): three 10 μl injections at 20 minute intervals, sacrificed 6 hours later, hAPP transgenic mice
T1 construct: from tissue; host or cells: brain of living hAPP transgenic mice (in vivo dosing, brain sections imaged)
Experimental: Three groups of three hAPP transgenic mice were treated with vehicle (10% DMSO), the Aβ peptide-agent conjugate described above, or pyrene butyrate. Mice received three 10 μl injections at 20 minute intervals over a one hour period. Mice were sacrificed 6 hours later and tissues were collected. Flourescence in sagital sections was performed using fixed frozen tissue and a UV-2A fileter-equipped microscope. All plaque counts were performed on a digital images using Image-Pro-Plus software (Media Cybernetics, Inc., Bethesda, Md.).

Aβ plaques [2] = biological target: T1, Aβ plaques; experiment: Fluorescent labeling of Aβ plaques in brain after intravenous administration to hAPP transgenic mice (Example 3); conditions: intravenous 30 mg/kg, tail vein, 6 hours after administration
Experimental: hAPP transgenic mice were administered the Aβ peptide-agent conjugate described above intravenously at a dose of 30 mg/kg through the tail vein. Mice were sacrificed at 6 hours after the administration of the conjugate, and brain sections were prepared for imaging as described above. After a section was imaged for conjugate fluorescence, it was bleached of fluorescence and stained with a Thioflavin S stain.

[3] = Clearance of conjugate determined by analysis of cerebrospinal fluid; conditions: 6 hours post-administration; CSF revealed no evidence of circulating conjugate
Experimental: The rate of localization and clearance or degradation of a conjugate can be assessed experimentally, for example, by administering the conjugates to mice and sacrificing them for analysis at different times post-administration, such as at time periods including 2 minutes, 10 minutes, 30 minutes, 60 minutes, 1 hour, 2 hours, 3 hours, 4 hours, 5 hours, 6 hours, or longer, post-administration.

Aβ plaques [4] = biological target: T1, Aβ plaques; experiment: Intranasal administration of peptide agent conjugate to hAPP751SL transgenic mice and littermate controls, brain fluorescence imaging (Example 1)
Source text: The following illustrates the ability of peptide agent conjugates to target Aβ plaques (e.g., insoluble self-aggregates of Aβ protein associated with Alheimer's disease) in vivo. A peptide agent specific for Aβ corresponding to residues 16-35 of the Aβ protein (SEQ ID NO:3) with an added C-terminal lysine residue (e.g., SEQ ID NO:5) for conjugating pyrene, and labeled at each terminus with pyrene is used.
In vivo studies use four homozygous hAPP751SL transgenic 10 month old mice and four littermate controls (siblings not carrying the transgene). The labeled peptide agent conjugate is administered intranasally, at 10 μl liquid per administration (at concentrations of from 0.1 to 2.0 mg/ml) with an administration interval of a planned half of an hour, adjusted according to the condition of the animal after treatment.
At the end of the treatment, mice are sacrificed and CSF and brains are extracted. (All mice are sedated by standard inhalation anaesthesia, Isofluran, Baxter).
Cerebrospinal fluid is obtained by blunt dissection and exposure of the foramen magnum. Upon exposure, a Pasteur pipette is inserted to the approximate depth of 0.3-1 mm into the foramen magnum. CSF is collected by suctioning and capillary action until flow fully ceases. CSF is immediately frozen and kept at −80° C. until use.
After CSF sampling, the stomach, stomach content and the brains are rapidly removed. Brains are hemisected, and the right hemisphere of all mice are immersion fixed in freshly produced 4% Paraformaldehyde/PBS (pH 7.4) for one hour at room temperature, and transferred to a 15% sucrose/PBS solution for 24 hours to ensure cryoprotection. Thereafter, brains are frozen in liquid isopentane on the next day and stored at −80° C. until used for histological investigations. The other brain half is immediately shock frozen in liquid isopentane for future use.
To assess the specifity of staining by the peptide agent conjugate, fluorescence is excited using a UV-2A and B-1E filter of a microscope to detect probable auto-fluorescence in the lower spectrum. […]

T1 sequence (P05067 672-713 limits assumed): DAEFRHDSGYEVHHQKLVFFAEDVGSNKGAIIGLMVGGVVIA

## pyrene butyrate [reference compound]
Aβ plaques [1]
  fluorescent labeling of Aβ plaques (FIG. 1): did not

## AD185: Peptide of residues 16-35 of the Aβ protein with added C-terminal lysine (SEQ ID NO:5), labeled at each terminus with pyrene (pyrene-KLVFFAEDVGSNKGAIIGLMK-pyrene)
Aβ plaques [2]; cortex (FIG. 3A)
  correlation between conjugate fluorescence and Thioflavin S staining: significant correlation
Aβ plaques [2]; hippocampus (FIG. 3B)
  correlation between conjugate fluorescence and Thioflavin S staining: significant correlation
[3]
  clearance, as determined by analysis of cerebrospinal fluid: cleared
Aβ plaques [1]; hippocampus (data not shown)
  correlation between conjugate fluorescence and Thioflavin S staining: positive correlation
Aβ plaques [1]; sequential sagital brain sections, co-merged images
  coincidence of conjugate fluorescence with 6E10 antibody and Thioflavin S plaque staining: coincided with the antibody and Thioflavin S plaque staining
Aβ plaques [1]
  fluorescent labeling of Aβ plaques (FIG. 1): showed fluorescent labeling of Aβ plaques
Aβ plaques [4]; hAPP751SL transgenic mice
  binding to amyloid in the brain: binds to the amyloid and agglomerates outside the blood vessel in the brain
Aβ plaques [4]; nontransgenic mice
  localization and binding in the brain: reaches the olfactory bulb, but does not bind to a specifiable morphological structure
Aβ plaques [4]; transgenic mice treated with the highest dose, brain images vs control mice and transgenic vehicle control
  crossing of the blood-brain barrier (BBB): crosses the blood-brain barrier

— patent publication US20090238754A1, “USE OF PYRENE TO CARRY PEPTIDES ACROSS THE BLOOD BRAIN BARRIER” (Adlyfe, Inc., priority 2008, published 2009)
